Measured values: patent US20260116946A1, “NOVEL CD200 FUSION PROTEINS” (DUCENTIS BIOTHERAPEUTICS LIMITED, priority 2022, published 2026)
Changes are numbered by the printed parent chain. In names and notes the source's numbering stands. Where two headings read alike, the source gives them in different places. Each block holds one molecule with its values, some of them ahead of it.

How the values were obtained:
[1] = target: Recombinant Cyno CD200R, His-tagged (Creative Biomart CD200R1-3483C) (cynomolgus) (UniProt G7NZT0); test: SPR (BIAcore T200), CD200-Fc captured on anti-human Fc, cyno CD200R in solution, 25 C
[2] = target: Recombinant Human CD200R, His-tagged (Creative Biomart CD200R1-320H) (human) (UniProt Q8TD46); test: SPR (BIAcore T200), CD200-Fc captured on anti-human Fc, human CD200R in solution, 25 C
Chain of Recombinant Human CD200R, His-tagged (Creative Biomart CD200R1-320H) (human) (Q8TD46 27-266 limits assumed): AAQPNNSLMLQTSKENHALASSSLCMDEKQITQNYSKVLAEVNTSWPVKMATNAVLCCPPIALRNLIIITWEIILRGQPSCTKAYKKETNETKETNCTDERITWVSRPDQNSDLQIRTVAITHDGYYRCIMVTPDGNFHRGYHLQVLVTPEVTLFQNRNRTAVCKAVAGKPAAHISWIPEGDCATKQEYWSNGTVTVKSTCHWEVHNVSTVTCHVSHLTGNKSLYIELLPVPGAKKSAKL

[3] = target: Recombinant Cyno CD200R, His-tagged (Creative Biomart CD200R1-3483C) (cynomolgus) (UniProt G7NZT0); test: SPR (BIAcore T200), CD200-Fc captured on anti-human Fc, cyno CD200R in solution, 25 C, mean of two runs
[4] = target: Recombinant Human CD200R, His-tagged (Creative Biomart CD200R1-320H) (human) (UniProt Q8TD46); test: SPR (BIAcore T200), CD200-Fc captured on anti-human Fc, human CD200R in solution, 25 C, mean of two runs
[5] = target: Recombinant Human CD200R, His-tagged (Creative Biomart CD200R1-320H) (human) (UniProt Q8TD46); test: SPR (BIAcore), DS-155 captured via anti-human Fc, HuCD200R1 as analyte, DRC = 500 nM to 31.25 nM (5 curves), 25 °C, 1:1 Binding fit; Run 1
[6] = target: Recombinant Human CD200R, His-tagged (Creative Biomart CD200R1-320H) (human) (UniProt Q8TD46); test: SPR (BIAcore), DS-155 captured via anti-human Fc, HuCD200R1 as analyte, DRC = 500 nM to 31.25 nM (5 curves), 25 °C, 1:1 Binding fit; Run 2
[7] = target: Recombinant Cyno CD200R, His-tagged (Creative Biomart CD200R1-3483C) (cynomolgus) (UniProt G7NZT0); test: SPR (BIAcore), DS-155 captured via anti-human Fc, CynoCD200R1 as analyte, DRC = 1000 nM to 62.5 nM (5 curves), 25 °C, 1:1 Binding fit; Run 1
[8] = target: Recombinant Cyno CD200R, His-tagged (Creative Biomart CD200R1-3483C) (cynomolgus) (UniProt G7NZT0); test: SPR (BIAcore), DS-155 captured via anti-human Fc, CynoCD200R1 as analyte, DRC = 1000 nM to 62.5 nM (5 curves), 25 °C, 1:1 Binding fit; Run 2
[9] = target: Recombinant Human CD200R, His-tagged (Creative Biomart CD200R1-320H) (human) (UniProt Q8TD46); test: not described (affinity label of the construct for CD200R)
[10] = target: T1, muCD200R-Fc (Creative Biomart CD200R1-458M) (mouse, UniProt Q9ES57 26-238); test: SPR, muCD200R-Fc captured on anti-human IgG Fc, CD200 monomers in solution
T1 construct: Bought reagent; also called captured CD200R; not shown: Fc part of the bought fusion; captured on anti-human IgG Fc
T1 sequence (looked up): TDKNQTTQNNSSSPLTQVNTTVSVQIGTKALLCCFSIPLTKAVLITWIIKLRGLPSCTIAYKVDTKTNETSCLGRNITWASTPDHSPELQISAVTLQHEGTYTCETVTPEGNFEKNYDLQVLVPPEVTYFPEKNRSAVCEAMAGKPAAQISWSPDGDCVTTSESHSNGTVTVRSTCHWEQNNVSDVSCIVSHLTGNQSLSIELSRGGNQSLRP
Method: For human CD200 constructs: anti-human Fc (GE Healthcare) was covalently immobilized on a BIAcore CM5 sensor chip (Cytiva, BR100530) by amine coupling using a Cytiva kit (BR100839) following the manufacturer's instructions, targeting immobilization of 8,000-11,000 RU. CD200-Fc proteins were diluted to 0.5 μg/mL to 4 μg/mL in running Buffer (1×HBS-EP+pH7.4 (Cytiva BR100669), HEPES Buffered Saline pH 7.4 containing 3 mM EDTA and 0.05% v/v Surfactant P20) and flowed for 25 to 100 seconds at […] over the immobilized Anti-Human IgG Fc, with a stabilization time of 60 seconds. Between 35 and 250 RUs of CD200-Fc were captured, with higher RUs used for cynomolgus CD200R binding experiments. […] Analysis temperature was 25° C. This was followed by regeneration of the surface with 30-90 second pulse of 3M MgCl₂ flowed at 30 μL/min flow rate followed by stabilization of the surface with 60 second flow of running buffer.
(§1) For mouse CD200 constructs, muCD200R-Fc (Creative Biomart CD200R1-458M) diluted to 1 μg/mL in running buffer was flowed over the immobilized Anti-Human IgG Fc, with CD200 monomers serially diluted and flowed over captured CD200R. Other details were as above. Data analysis: experimental sensorgrams were analyzed in BIAevaluation software (GE Healthcare). The curves obtained were fitted to 1:1 Langmuir binding model by setting Rmax and RI as local parameters. Rate equations using standard parameters (e.g. ligand concentration, time) were used for iterative curve fitting. Closeness of fit was determined by algorithms provided by the manufacturer in the BIAevaluation software, and data accepted if the Chi² value was less than 10% of Rₘₐₓ, and the U value was less than or equal to 15.

muCD200R-Fc = target: T2, muCD200R-Fc (Mus musculus, UniProt Q9ES57); test: BIAcore SPR binding of murine CD200 variants to muCD200R-Fc
T2 construct: purchased Creative Biomart CD200R1-458M
T2 sequence (Q9ES57 26-238 limits assumed): T1 sequence (looked up)
Method: as §1, with “Chi^2” for “Chi²”, “Rmax,” for “Rₘₐₓ,”
Murine CD200 constructs used Uniprot sequence O54901, containing the signal peptide and extracellular domains. Mutation numbers refer to the full Uniprot sequences including signal peptide.
Proteins were generated by transient transfection of pcDNA 3.1-based expression plasmids into CHO-3E7 cells using Polyethyleneimine (PEI). 24 hours post transfection, cultures were shifted to 32° C., fed with 10% feed C, glutamine, glucose and […] Sodium butyrate; supernatants were harvested and filtered at day 7. Purification was performed at 4° C. using MabSelect SuRe 5 ml affinity columns (Cytiva), pre-equilibrated with 50 mM Sodium Phosphate, 150 mM NaCl PH 7.4, at a flowrate of 3 mL/min on a AKTA Pure platform. The column was washed with equilibration buffer and bound protein eluted using 20 mM sodium acetate, 150 mM NaCl pH 3.5. Elutes were neutralized with 10% v/v 1 M Tris pH 8.0 and analysed by SDS-PAGE. Pooled fractions were concentrated to 5 mL and subjected to gel-filtration chromatography (Hiload 16/600 Superdex-200 pg column) on a AKTA Pure platform. The protein was processed in 50 mM Sodium Phosphate, 150 mM NaCl pH 7.4 buffer system at 1.2 mL/min. Fractions containing protein were pooled and concentrated using an Amicon Ultra Centricon (10 kDa molecular weight cut-off) to 1.33 mg/mL (measured at UV 280 nm). The purified material was subjected to SEC-HPLC, LC-MS and EndoSafe LAL cartridge test to assess protein purity, molecular mass and endotoxin content, respectively. Mouse CD200-his proteins were purified with Ni-NTA agarose resin using standard methodology. All proteins were stored at −80° C.

male DBA/1J mice = test: Mouse collagen-induced arthritis (CIA) model, preventative dosing; format: in vivo; conditions: 3 mg/kg once every 3 days, day 22 to 36; scores day 25-36
Method: Wild type (DS-198) and higher affinity (DS-227) murine CD200-Fc proteins were tested using a CIA model by initiating dosing just prior to symptom onset. Arthritis was induced in male DBA/1J mice by intradermal injection of bovine type II collagen in CFA (complete Freund's adjuvant) on day 1, followed by a booster injection in incomplete Freund's adjuvant on day 21. […] Clinical scores of paw arthritis (blinded assessment) were measured from day 25-36 on alternate days. The data in FIG. 9 are shown as Mean±SEM. **p<0.01; ***p<0.001 vs Disease+Dexa, Disease+DS-198, & Disease+DS-227. Two-way RM ANOVA followed by Tukey's multiple comparisons test.

[11] = murine CD200, stated in text, read-out: binding affinity

Molecule: DS-155 (wild-type human CD200-Fc, IgG4 S228P) (from UniProt P41217 31-232; P01861 99-327) (Fc fusion)
t½ [1]: 12 s
t½ [2]: 21 s
Kd [3]: 971 nM
koff [3]: 0.0586 s⁻¹
kon [3]: 60600 M⁻¹ s⁻¹
Kd [4]: 179 nM
koff [4]: 0.0326 s⁻¹
kon [4]: 183000 M⁻¹ s⁻¹
Kd [5]: 174 nM
koff [5]: 0.0324 s⁻¹
kon [5]: 186000 M⁻¹ s⁻¹
Kd [6]: 183 nM
koff [6]: 0.0329 s⁻¹
kon [6]: 180000 M⁻¹ s⁻¹
Kd [7]: 888 nM
koff [7]: 0.0564 s⁻¹
kon [7]: 63500 M⁻¹ s⁻¹
Kd [8]: 1050 nM
koff [8]: 0.0608 s⁻¹
kon [8]: 57600 M⁻¹ s⁻¹

Molecule: DS-192 (human CD200 K130Y - IgG4 S228P Fc) (from UniProt P41217 31-232; P01861 99-327) (Fc fusion)
Kd [9]: 13 nM

B1: murine CD200 wild type (Table 7 'wt') (ligand, mouse, UniProt O54901 31-232, looked up)
chain: QVEVVTQDERKALHTTASLRCSLKTSQEPLIVTWQKKKAVSPENMVTYSKTHGVVIQPAYKDRINVTELGLWNSSITFWNTTLEDEGCYMCLFNTFGSQKVSGTACLTLYVQPIVHLHYNYFEDHLNITCSATARPAPAISWKGTGTGIENSTESHFHSNGTTSVTSILRVKDPKTQVGKEVICQVLYLGNVIDYKQSLDKG
notes: extracellular domain; The Fc fusion with the same CD200 part is DS-198 (muIgG2a); also called mouse CD200-his; CD200 monomer
T1/2 [10]: 17.3 s

B3: H82Y, T125I: murine CD200 combination variant H82Y, T125I of Table 7 (protein)
chain: B1 chain with H52Y, T95I
Kd (muCD200R-Fc; [11]): 43 nM
Kd (muCD200R-Fc; murine CD200 variants, table head prints no unit, nM, read-out: KD): 43.3 ± 4.9 nM
fold higher binding affinity than wild type (muCD200R-Fc; versus wild type murine CD200): approximately 14 fold

Continued, in another order:

Kd (muCD200R-Fc; [11]): 43 nM
B2: DS-227: high affinity murine CD200-Fc, CD200 H82Y, T125I, muIgG2a Fc (protein)
chain: B1 chain with H52Y, T95I
modifications: left off: small tags and cut ends
clinical score of paw arthritis (male DBA/1J mice): significantly more potent in reducing clinical score than wild type (DS-198)

T1/2 [10]: 118 s
fold higher binding affinity than wild type [10]: ~14 fold
B4: murine CD200 H82Y, T125I (Table 7 combination variant) (ligand, mouse, UniProt O54901 31-232, looked up)
chain: B1 chain with H52Y, T95I
notes: extracellular domain; The Fc fusion with the same mutations is DS-227 (muIgG2a, called '43 nM muCD200-Fc'); also called combination variant H82Y, T1251; mouse CD200-his
